# Source: patent publication US9115359B2, “Methods for producing secondary metabolites” (NewSouth Innovations Pty Limited, priority 2007, dated 2015)
# B1: Sppt: Synechocystis sp. PCC6803 phosphopantetheinyl transferase (slr0495, Swissprot Q55185) (protein)
# chain: MLPQPQIWLCPTDRPLIPGYQALLSSEEMARGERYQRPQDKQRFLTMRLALRILLARQLDCLPQQLQFTYGPQGKPELVDRERRSPWFNVAHSGNYGLIGLSTEGEIGVDLQIMLPKPHYLKLAKRFFAPQEVQQLESLEGEKRTKLFYQLWTAKEAFLKATGKGISGGLNQVIPDENLAKYQYLPDSGDTNHWRLSSQPLLADQGSNDNYWMAIAWCTNEVNQVESNYLPNIQPFQWPRNLDSLP
# B2: Synechocystis sp. PCC6803 phosphopantetheinyl transferase Sppt (slr0495, Swissprot accession number Q55185) (Synechocystis sp. PCC 6803 substr. Kazusa) (protein)
# chain: MAISAEFALCLNSPVLPQPQIWLCPTDRPLIPGYQALLSSEEMARGERYQRPQDKQRFLTMRLALRILLARQLDCLPQQLQFTYGPQGKPELVDRERRSPWFNVAHSGNYGLIGLSTEGEIGVDLQIMLPKPHYLKLAKRFFAPQEVQQLESLEGEKRTKLFYQLWTAKEAFLKATGKGISGGLNQVIPDENLAKYQYLPDSGDTNHWRLSSQPLLADQGSNDNYWMAIAWCTNEVNQVESNYLPNIQPFQWPRNLHSLPSFRYLGKGEFQHTGGRY
# notes: carrier-protein substrate truncated SACP3
# What was measured:
# [1] = target: truncated SACP, SACP3 (Synechocystis sp. PCC6803) (UniProt P20804)
# [2] = target: Bacillus brevis ATCC8185 NRPS peptidyl carrier protein involved in tyrocidine biosynthesis (TycPCP) (Bacillus brevis ATCC8185)
# NpACP = experiment: Sppt in vitro phosphopantetheinylation of non-cognate carrier proteins, ESI-MS; format: biochemical, N. punctiforme ATCC29133; settings: 30 min reaction
# Protocol: (§1) Sppt activity towards SACP was determined in a 10 min phosphopantetheinylation assay at 37° C. as previously described in Copp J. N., Roberts A. A., Marahiel M. A., Neilan B. A., 2007, Characterization of PPTNs, a cyanobacterial phosphopantetheinyl transferase from Nodularia spumigena NSOR10. J Bacteria 189(8):3133-9. Briefly, the 100-200 μl reactions comprised of 50 mM Tris-HCl pH 7.4, 12.5 mM MgCl2, 0.5 mM CoA, 2 μM DTT, 100 μM carrier protein and 300 nM Sppt. Reactions were incubated for 10 min at 37° C., terminated by the addition of 1 ml trichloroacetic acid and precipitated overnight at −20° C. before centrifugation for 15 min at 18,000×g. Samples were dissolved in water:acetonitrile:formic acid (50:49:1). Phosphopantetheinylation was observed by an increase in mass of 340 Da as visualised by electrospray ionisation mass spectrometry (ESI-MS). […]
# (§2) The ability of Sppt to activate carrier proteins from a range of secondary metabolism pathways was tested, including those from unicellular and filamentous, heterocyst-forming cyanobacteria. […] Protein concentrations were determined based on the calculated extinction coefficients: NpArCP 8,250 cm^−1M^−1, NpACP 13,940 cm^−1M^−1, MPCP 6,970 cm^−1M^−1 and TycPCP 9,530 cm^−1M^−1. Phosphopantetheinylation assays were carried out in 30 min reactions and analysed by ESI-mass spectrometry described in Example 4 above.
# NpArCP = experiment: as above; format: biochemical, N. punctiforme ATCC29133; settings: 30 min reaction
# Protocol: as §1, §2
# MPCP = experiment: as above; format: biochemical, M. aeruginosa PCC7806; settings: 30 min reaction
# Protocol: as §1, §2
# TycPCP = experiment: as above; format: biochemical, Bacillus brevis ATCC8185; settings: 30 min reaction; estimated from holo- and apo-CP abundance in mass spectra
# Protocol: as §1, §2
# [3] = substrate: CC(C)(COP(=O)(O)OP(=O)(O)OC[C@H]1O[C@@H](n2cnc3c(N)ncnc32)[C@H](O)[C@@H]1OP(=O)(O)O)[C@@H](O)C(=O)NCCC(=O)NCCS; experiment: Phosphopantetheinylation assay with HPLC analysis: kinetics of Sppt with respect to CoA, carrier protein SACP3 (truncated SACP); format: biochemical, Synechocystis sp. PCC6803; settings: other: Michaelis-Menten fit, 37° C.
# Description: Sppt and SACP were expressed and purified to determine the activity of Sppt via phosphopantetheinylation assays. Sppt was amplified by the primer pair SynPpF (5′-TGTTTAAACTCACCTG-3′) (SEQ ID NO: 9) and SynPpR (5′-CCCAAGGTTACGAAAC-3′) (SEQ ID NO: 10). The resulting PCR product was cloned into pGEM-T (Promega), digested with the restriction enzymes SacI and EcoRV and ligated into pET30 (Novagen, San Diego, Calif.). The Synechocystis sp. PCC6803 fatty acid synthesis (FAS) ACP, designated SACP (AcpP BA000022), was amplified by the primer pair ssl2084Efw (5′-[…]-3′) (SEQ ID NO: 11) and ssl12084 Hry (5′-[…]-3′) (SEQ ID NO: 12), digested with the restriction enzymes EcoRI and HindIII, and cloned into pET30. A truncated SACP, SACP3, was cloned and expressed for HPLC kinetic analysis using the primers 2084NdeF (5′-[…]-3′) (SEQ ID NO: 13) and 2083XhoR (5′-[…]-3′) (SEQ ID NO: 14).
# The constructs were transformed into BL21(DE3) Rosetta (Novagen) for expression. Sppt was expressed at 37° C., with an induction concentration of 1 mM isopropyl-beta-D-thiogalactopyranoside (IPTG), for 3 hours. SACP and SACP3 were expressed at 37° C. with 1 mM IPTG for 20-40 min. Cultures were harvested at 5,000×g and cell pellets were stored at −80° C. Cell pellets were resuspended in Hepes buffer (Hepes 50 mM, NaCl 150 mM pH 7.4) and passaged three times through a cooled French pressure cell at […] (Paton Scientific, Victor Harbor, South Australia). […]
# The protein concentrations were determined based on the calculated extinction coefficients: SACP 6,970 cm^−1M^−1, Sppt 53,110 cm^−1M^−1. […]
# Sppt activity towards SACP was determined in a 10 min phosphopantetheinylation assay at 37° C. as previously described in Copp J. N., Roberts A. A., Marahiel M. A., Neilan B. A., 2007, Characterization of PPTNs, a cyanobacterial phosphopantetheinyl transferase from Nodularia spumigena NSOR10. […]
# The CoA inhibition and pH activity range for Sppt was determined using in vitro phosphopantetheinylation assays with the truncated SACP3. […]
molecule,measurement,setting,value
Synechocystis sp. PCC6803 phosphopantetheinyl transferase (Sppt) (from UniProt Q55185) (enzyme),"kcat of phosphopantetheinylation of SACP3 (HPLC assay, CoA varied) (min^-1 (printed min^d))",[1],28.4
same,"phosphopantetheinylation of the carrier protein (30 min assay, ESI-MS; % holo-CP)",[2],54%
B1,phosphopantetheinylation of NpACP,NpACP,not reproducibly detected
same,phosphopantetheinylation of NpArCP,NpArCP,unable to phosphopantetheinylate
same,phosphopantetheinylation of MPCP,MPCP,small mass peak corresponding to the addition of a 340 Da phosphopantetheinyl moiety
same,TycPCP phosphopantetheinylated (% holo-CP),TycPCP,approximately 54%
B2,Km,[3],169.17 ± 37.48 µM
same,kcat,[3],0.473 s⁻¹
same,kcat/Km,[3],2800 M⁻¹ s⁻¹
